This data set is described as follows: collision cross section of modified peptide (TIMS, N2, iRT-aligned); higher = larger / more extended gas-phase ion. A digest of the protocol:
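Synthetic peptide pools (~100 fmol/µL in 2% acetonitrile/0.1% formic acid, iRT standard spiked 1:40) were separated on a 120-min nanoflow C18 gradient at 60 °C. They were analysed on a timsTOF Pro/HT (dda-PASEF, nitrogen, ~2.4 mbar) and identified with MaxQuant. 1/K0 was calibrated with three reference ions and aligned run-wise to the median iRT peptide deviation. Collision cross section came from the Mason-Schamp equation, averaging 1–3 technical replicates of the most abundant feature per charge state.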

Setting [1] is: charge state: 2, modification: Glutarylation.
Setting [2] is: charge state: 3, modification: Glutarylation.
The mark [3] stands for this setting: charge state: 2, modification: GlyGly (K).
[4] abbreviates: charge state: 3, modification: GlyGly (K).
Setting [5] is: charge state: 2, modification: Malonyl.
Where [6] appears, read: charge state: 3, modification: Malonyl.
[7] abbreviates: charge state: 2, modification: Methyl (K).
[8] abbreviates: charge state: 3, modification: Methyl (K).
[9] abbreviates: charge state: 2, modification: Propionyl.
Setting [10] is: charge state: 3, modification: Propionyl.
Where [11] appears, read: charge state: 2, modification: Succinyl.
The mark [12] stands for this setting: charge state: 3, modification: Succinyl.
Where [13] appears, read: charge state: 2, modification: Trimethyl (K).
[14] abbreviates: charge state: 3, modification: Trimethyl (K).
[15] abbreviates: charge state: 2, modification: hydroxyisobutyryl.
The mark [16] stands for this setting: charge state: 3, modification: hydroxyisobutyryl.
Setting [17] is: charge state: 2, modification: Acetyl (K).
Where [18] appears, read: charge state: 3, modification: Acetyl (K).
Where [19] appears, read: charge state: 3, modification: Biotin.
The mark [20] stands for this setting: charge state: 2, modification: Butyryl.
[21] abbreviates: charge state: 3, modification: Butyryl.
[22] abbreviates: charge state: 2, modification: Crotonyl.
Setting [23] is: charge state: 3, modification: Crotonyl.
Where [24] appears, read: charge state: 3, modification: Dimethyl (K).
[25] abbreviates: charge state: 2, modification: Formyl.
The mark [26] stands for this setting: charge state: 3, modification: Formyl.
Setting [27] is: charge state: 2, modification: Biotin.
The mark [28] stands for this setting: charge state: 2, modification: Dimethyl (K).

Our source for the collision cross section values is the supplement of paper PMC10598134.

± gives the standard deviation.

In the case of “SITHSTVGSKGEK [_SITHSTVGSK(Gluratylation)GEK_]”, the collision cross section reads like this: under setting [1], 400.44 ± 2.1 Å²; under setting [2], 444.81 ± 2 Å².
Consider “SITHSTVGSKGEK [_SITHSTVGSK(GlyGly (K))GEK_]”, for which the collision cross section is, setting by setting: under setting [3], 404.23 ± 1.4 Å²; under setting [4], 469.84 ± 1.3 Å².
Regarding “SITHSTVGSKGEK [_SITHSTVGSK(Malonyl)GEK_]”, the collision cross section reads like this: under setting [5], 390.69 ± 2.2 Å²; under setting [6], 440.36 ± 2.7 Å².
As for “SITHSTVGSKGEK [_SITHSTVGSK(Methyl (K))GEK_]”, the collision cross section is, setting by setting: under setting [7], 402.47 ± 1.2 Å²; under setting [8], 466.28 ± 2.9 Å².
Consider “SITHSTVGSKGEK [_SITHSTVGSK(Propionyl)GEK_]”, for which the collision cross section reads like this: under setting [9], 395.17 ± 0.94 Å²; under setting [10], 443.25 ± 0.59 Å².
For the sequence “SITHSTVGSKGEK [_SITHSTVGSK(Succinyl)GEK_]”, the collision cross section reads like this: under setting [11], 392.73 ± 1.4 Å²; under setting [12], 442.37 ± 2.9 Å².
As for “SITHSTVGSKGEK [_SITHSTVGSK(Trimethyl (K))GEK_]”, the collision cross section was 408.54 ± 2.1 Å² under setting [13] and 473.59 ± 1.5 Å² under setting [14].
In the case of “SITHSTVGSKGEK [_SITHSTVGSK(hydroxyisobutyryl)GEK_]”, the collision cross section reads like this: under setting [15], 401.03 ± 1.4 Å²; under setting [16], 446.16 ± 2.7 Å².
For the sequence “SKHLQEQLNELK [_SK(Acetyl (K))HLQEQLNELK_]”, the collision cross section under setting [17] is listed as 415.42 ± 1.7 Å² and the collision cross section under setting [18] is 483.11 ± 1.6 Å².
Consider SKHLQEQLNELK [_SK(Biotin)HLQEQLNELK_], for which the collision cross section under setting [19] is 520.89 Å².
Consider SKHLQEQLNELK [_SK(Butyryl)HLQEQLNELK_], for which the collision cross section is 422.39 ± 0.24 Å² under setting [20] and 490.06 ± 2.9 Å² under setting [21].
Take SKHLQEQLNELK [_SK(Crotonyl)HLQEQLNELK_]: the collision cross section runs as follows: under setting [22], 421.79 ± 0.28 Å²; under setting [23], 491.86 ± 3.7 Å².
Regarding “SKHLQEQLNELK [_SK(Dimethyl (K))HLQEQLNELK_]”, the collision cross section under setting [24] came to 492.51 ± 0.54 Å².
With SKHLQEQLNELK [_SK(Formyl)HLQEQLNELK_], the collision cross section was 412.77 ± 0.19 Å² under setting [25] and 477.47 ± 2.1 Å² under setting [26].
As to “SKHLQEQLNELK [_SK(Gluratylation)HLQEQLNELK_]”, the collision cross section is 423.49 ± 0.97 Å² under setting [1] and 496.16 ± 2 Å² under setting [2].
“SKHLQEQLNELK [_SK(GlyGly (K))HLQEQLNELK_]” displayed a collision cross section under setting [3] of 420.45 ± 1.4 Å² and a collision cross section under setting [4] of 495.28 ± 2 Å².
SKHLQEQLNELK [_SK(Malonyl)HLQEQLNELK_]: the collision cross section by setting is: under setting [5], 415.64 Å²; under setting [6], 480.76 ± 0.91 Å².
For “SKHLQEQLNELK [_SK(Methyl (K))HLQEQLNELK_]”, the collision cross section runs as follows: under setting [7], 411.32 ± 1.9 Å²; under setting [8], 492.52 ± 1.8 Å².
Turning to SKHLQEQLNELK [_SK(Succinyl)HLQEQLNELK_], the collision cross section is listed as 419.21 ± 1.5 Å² under setting [11] and 481.12 ± 2 Å² under setting [12].
For “SKHLQEQLNELK [_SK(Trimethyl (K))HLQEQLNELK_]”, the collision cross section by setting is: under setting [13], 417.87 Å²; under setting [14], 506.13 ± 1.6 Å².
With “SKHLQEQLNELK [_SK(hydroxyisobutyryl)HLQEQLNELK_]”, the collision cross section runs as follows: under setting [15], 425.52 ± 0.81 Å²; under setting [16], 492.58 ± 2.1 Å².
In turn, “SKLLFSNTAAQK [_SK(Acetyl (K))LLFSNTAAQK_]” came in with a collision cross section under setting [17] of 396.66 ± 1.3 Å².
The sequence SKLLFSNTAAQK [_SK(Biotin)LLFSNTAAQK_] yielded a collision cross section under setting [27] of 417.26 ± 2.9 Å².
SKLLFSNTAAQK [_SK(Butyryl)LLFSNTAAQK_] displayed a collision cross section under setting [20] of 402.3 ± 1.3 Å².
On to SKLLFSNTAAQK [_SK(Crotonyl)LLFSNTAAQK_], for which the collision cross section under setting [22] is recorded as 402.06 ± 0.79 Å².
“SKLLFSNTAAQK [_SK(Dimethyl (K))LLFSNTAAQK_]” registered a collision cross section under setting [28] of 389.15 Å².
SKLLFSNTAAQK [_SK(Formyl)LLFSNTAAQK_]: the collision cross section under setting [25] is on record as 390.83 ± 0.41 Å².
Take “SKLLFSNTAAQK [_SK(Gluratylation)LLFSNTAAQK_]”: the collision cross section under setting [1] came to 403.03 ± 0.5 Å².
“SKLLFSNTAAQK [_SK(GlyGly (K))LLFSNTAAQK_]” returned a collision cross section under setting [3] of 396.71 ± 0.37 Å² and a collision cross section under setting [4] of 447.27 ± 13 Å².
Under setting [5], SKLLFSNTAAQK [_SK(Malonyl)LLFSNTAAQK_] came in with a collision cross section of 394.73 ± 0.61 Å².
Consider “SKLLFSNTAAQK [_SK(Methyl (K))LLFSNTAAQK_]”, for which the collision cross section was found to be 387.94 ± 0.83 Å² under setting [7] and 461.44 ± 4.6 Å² under setting [8].
In the case of “SKLLFSNTAAQK [_SK(Propionyl)LLFSNTAAQK_]”, under setting [9], the collision cross section stood at 398.2 ± 1.4 Å².
Under setting [11], SKLLFSNTAAQK [_SK(Succinyl)LLFSNTAAQK_] registered a collision cross section of 398.22 ± 0.77 Å².
Regarding “SKLLFSNTAAQK [_SK(Trimethyl (K))LLFSNTAAQK_]”, the collision cross section runs as follows: under setting [13], 395.61 ± 0.017 Å²; under setting [14], 446.07 ± 2.4 Å².
In the case of “SKLLFSNTAAQK [_SK(hydroxyisobutyryl)LLFSNTAAQK_]”, the collision cross section under setting [15] was determined as 404.35 ± 0.3 Å².
“SLEEEGAAHSGKR [_SLEEEGAAHSGK(Acetyl (K))R_]”: the collision cross section under setting [17] was 412.49 ± 2.4 Å² and the collision cross section under setting [18] amounted to 476.34 ± 2.4 Å².
For SLEEEGAAHSGKR [_SLEEEGAAHSGK(Biotin)R_], the collision cross section by setting is: under setting [27], 428.85 Å²; under setting [19], 493.19 Å².
On to “SLEEEGAAHSGKR [_SLEEEGAAHSGK(Butyryl)R_]”, for which the collision cross section by setting is: under setting [20], 418.69 ± 0.77 Å²; under setting [21], 478.81 ± 1.8 Å².
Consider “SLEEEGAAHSGKR [_SLEEEGAAHSGK(Crotonyl)R_]”, for which the collision cross section under setting [22] stood at 420.35 ± 1.1 Å² and the collision cross section under setting [23] is 486.66 ± 11 Å².
In the case of “SLEEEGAAHSGKR [_SLEEEGAAHSGK(Dimethyl (K))R_]”, the collision cross section runs as follows: under setting [28], 412.8 ± 3 Å²; under setting [24], 453.89 ± 1.2 Å².
With SLEEEGAAHSGKR [_SLEEEGAAHSGK(Formyl)R_], the collision cross section reads like this: under setting [25], 409.43 ± 1.8 Å²; under setting [26], 472.26 ± 2.9 Å².
For “SLEEEGAAHSGKR [_SLEEEGAAHSGK(Gluratylation)R_]”, the collision cross section runs as follows: under setting [1], 420.5 ± 2 Å²; under setting [2], 475.56 ± 1.7 Å².
For the sequence “SLEEEGAAHSGKR [_SLEEEGAAHSGK(GlyGly (K))R_]”, the collision cross section is, setting by setting: under setting [3], 418.89 ± 1.9 Å²; under setting [4], 473.02 ± 0.33 Å².
As to “SLEEEGAAHSGKR [_SLEEEGAAHSGK(Malonyl)R_]”, under setting [5], the collision cross section is recorded as 414.03 ± 1.2 Å².
With “SLEEEGAAHSGKR [_SLEEEGAAHSGK(Methyl (K))R_]”, the collision cross section runs as follows: under setting [7], 413.71 ± 2.6 Å²; under setting [8], 459.06 ± 3.1 Å².
In the case of “SLEEEGAAHSGKR [_SLEEEGAAHSGK(Propionyl)R_]”, the collision cross section under setting [9] is 416.58 ± 0.64 Å² and the collision cross section under setting [10] came out at 480.52 ± 0.66 Å².
